B1: TPR t1 (parent)
chain: GACCAAUCUGCCCUCAGAGCUCGAGAACAUCUUCGGAUGCAGAGGAGGCAGGCUUCGGUGGCGCGAUAGCGCCAACGUCCUCAACCUCCAAUGCAUCCCACCACAUGAUGAUGCCUGAAGAGCCUUGGUUUUUUG

Variants of: B1
Test: polymerase ribozyme fitness, log enrichment relative to wild type (log ratio); higher = more active; in vitro selection for triplet polymerase activity
Procedure, shortened: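 Mutant libraries of each subunit of a heterodimeric triplet polymerase ribozyme were built by PCR and transcribed. Each library went through one round of in vitro selection in triplicate: annealing with biotinylated primer, partner subunit and triplets, frozen incubation at −7 °C, gel excision of extended constructs, streptavidin-bead capture and RT-PCR. Input and output libraries were Illumina-sequenced; only genotypes with ≥10 input reads and ≥1 read per output were kept. Fitness is log2(genotype enrichment/wild-type enrichment), using inverse-variance-weighted replicate averages.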

Variant	polymerase ribozyme fitness (log ratio)
U9G C56G G61A	-2.17
U9A G61U C85U G117U	0.0255
U9A C15A G45C A108G	-4.55
U9G G48U C88A	-1.04
C8U C88U A121C	1.33
C8U C62A	-0.587
C8U C62U	0.699
U9G C31U C94G	-6.42
U9G G10C C94G A121C C124G	1.48
C8U G60C	0.253
G10A A83C G110C U133A	-3.93
U9A C115G	1.95
U9A C13G A16U A41U	-1.62
U9A G19A G52U A105C A111G G120A	-5.2
C8U G44A	-0.0714
U9C G51C U81G U92C	-5.89
U9C C114A U129C	-1.92
U9G G58U U112A G120A U130C	0.977
U9G G57A C79A	-1.03
C8U U14G G17A A119G	-0.996
U9A C79A G93U C101A	-2.59
U9C U92A C114A	-1.69
U9A U78C U96A C124U	1.26
U9G A27U U133G	-2.53

Variant	polymerase ribozyme fitness (log ratio)
U9G C22U U54G C104U	-4.59
C8U C31U C53U	-4.36
U9C G60U U109G C114G	-3.95
C8U G113A A121G	-0.604
U9A U32A A37U A46C C56A C79A A111G	-7.29
U9C G57U	0.0681
U9G G39A C56U	0.0691
U9C C72G	0.104
U9C C72U	0.343
U9G G45U U92C U129G	-1.65
C8U U78G C98U	-0.651
U9G C40G G110U C123G	-4.98
U9A U55A C56A G63U	-5.03
U9A G19C A41U	-1.63
C8U G61U	0.435
U9A G42A C70U U129A	-4.53
U9A C49A C72A A100U	-0.384
U9G G36U G57U C62U	-1.11
U9G G77A U78C C98A G113C	-5.07
U9G C40A U54G U81G C85A C123G	-5.22
U9A C99A	-6.7
U9G G51C G61U G127C	-3.3
C8U G61U C88G U109A U133C	-4.61
U9G G60U C62U	-1.11

Variant	polymerase ribozyme fitness (log ratio)
C8U G69U C115A	1.59
U9A C70U	0.25
U9A A74G C104A C123A	-0.249
U9G A46C G61A U87A G93C C115A U116C A119C	-3.51
G10A A29C G39A G69U	-2.05
U9C C12G G60C U78C	-1.6
U9C C12A C86A C102A C104U C124A	-0.301
C8U C72G A84U U87C U92G	-4.49
U9C C80G	-5.3
G10A A90C G93C A111U	-5.12
U9G G48U	-1.27
U9A U21G A41U G45A	-4.48
C8U C70A C115U G117A	-4.95
U9G C28U C56A C114U A118U U125G U132A	-5.4
U9C G19A	-1.95
U9C G19C	-2.29
U9G U14G G93A	-0.26
U9G C62U	-0.19
U9G G48U G93C A111C	-1.91
U9A A27C U30C C56G A111U	-4.95
C8U G48C G69U	0.0683
U9A U33A G36U C89G C124A	-5.28
G10A A95U G122A	0.0165
U9G A18C G117C	0.268

Variant	polymerase ribozyme fitness (log ratio)
U9C C53A C123G	1.78
C8U C22G U55C C73A C98A A111G U112A	-6.04
U9A C11A G42U G61U	-1.6
C8U C76G U96A G120U U129C	0.287
U9A C20G	-2.47
C8U G52U U54G G63A A118G	-3.26
U9A C62G C79G	-4.02
U9G G113A	-0.0202
U9A C12U C15A C53G U54C U106G	-3.06
U9C C56G G60A C88G	-3.64
U9A A50C A91G U106C	-1.11
U9G C70A C76U	-3.45
C8U C56G C80A	-1.69
U9C C31G U92A G93C C114A	-5.25
U9G A50U A74C G113C	-3.6
U9G C80A U87C C114U	-4.36
U9G C11A G52A G57C U116G A121G	0.971
U9C C15A G44U G60C A91U A121G	-1.08
U9C G63A	0.19
U9G U21A C97A	-4.03
U9A A16U G63A U129C	-1.11
U9C C13G C28G G45U G61A	-2.49
U9C C72U U78C A83U A90G A121G	2.19
C8U U14A C72A C73U	-2.99

Variant	polymerase ribozyme fitness (log ratio)
U9A G39C G61C U78A U87G G110U	-2
C8U G48U A50U G69U C86U U96A	-1.23
U9A C34A G51A C70U A121C	-6.25
U9G C40U G45U U129C G135A	-3.12
U9G G60A A90C C123U	0.324
U9A C73U G117A	0.559
U9G A46U A91C G117A	-1.93
U9C A103C C104A	-2.12
U9G A27U G39U A46U	-4
C8U G42U	-0.81
C8U C76A C79G C123G	0.407
C8U C88U	0.472
C8U G44A U109A	-5.08
C8U C53A C73G	-0.563
U9A U30C G44A G57U G60A	-4.18
U9A G71U U87A C89A U112G	-5.05
U9G G48A G93C	-1.01
U9G G39C G42U C64U	-2
C8U C40U C104A A119G	-1.19
U9G C34A	-1.59
U9G C34U	-3.92
U9G C34G	-4.16
C8U C62U U87A A121U	1.89
U9G G61U G117A	1.58

Variant	polymerase ribozyme fitness (log ratio)
C8U U59A C94U A119U	-0.404
U9G C31U	-4.02
C8U G71A C115U	-1.94
G10A A41U C53U U78G C89A A105U G120U	-5.97
C8U C72U C82A A84C A111C	0.264
U9A G63U	-0.179
U9G C56U G61U	-4.53
C8U U125A U130G	-0.351
U9A C12U A37G G61A	0.106
U9G G17A A18U A46U A84G U87A U112C G127C U134A	-2.66
U9A G17A G113A	-3.11
U9C C56G	0.559
U9C C56A	-0.0544
G10A A27U G42A C70U C99A	-6.56
U9C A16U C72G C88A A95C A111U	-6.59
U9G G45A	0.293
U9G G120A U130A	1.11
U9G C115G	1.35
U9G G10A U14G A46G G48A A66G	-2.94
U9A C53U C72U U92A G127A	-3.85
U9A C97G A105G C115U G117A	-7.76
U9G C12G	0.483
C8U U96A U125G U131C	-1.53
U9C G69U A100U U112A C123U	2.09

Variant	polymerase ribozyme fitness (log ratio)
U9A G35A	-3.25
C8U C72G U92A C123A	-2.13
U9G C97A	-4.53
U9C A43U	-0.741
C8U G65A	-4.53
U9G G39A A121U U131C	2.2
C8U C73U G120A	1.89
U9G A26U C72U	-2.22
C8U G39C	0.0547
C8U G39C C79U G120U	1.3
C8U U96C	0.939
U9C C56U A83U G117A	0.635
U9C C13U C53A U87C A100U	-0.242
C8U G44A C104U	0.0147
U9C C15A G45C G57C U59A G120A	0.743
C8U G47C C62U	-1.51
C8U U14G G60A C73U	-0.213
U9A C114A	0.123
U9A A29U G63A C104A	-3.02
U9C A90G C115U U131C	1.24
C8U C53U C73U A105C U125G	-1.94
U9C U59C A84U C104A C114U	-4.8
U9G G52U C70U C88G C123A	-0.768

Reference: the RNAGym collection of RNA variant scans (doi:10.1073/pnas.2313332121)
